Data as given in paper PMC7214386, “Plasmonic biosensors fabricated by galvanic displacement reactions for monitoring biomolecular interactions in real time” (Analytical and Bioanalytical Chemistry, 2020).

T1: asialofetuin (UniProt P12763 19-359, glycoprotein presenting terminal galactose residues)
T1 construct: asialofetuin (desialylated fetuin), printed mass 48 kDa; Physically adsorbed on the gold sensor; also called ASF; source: bought: Sigma
T1 sequence (looked up): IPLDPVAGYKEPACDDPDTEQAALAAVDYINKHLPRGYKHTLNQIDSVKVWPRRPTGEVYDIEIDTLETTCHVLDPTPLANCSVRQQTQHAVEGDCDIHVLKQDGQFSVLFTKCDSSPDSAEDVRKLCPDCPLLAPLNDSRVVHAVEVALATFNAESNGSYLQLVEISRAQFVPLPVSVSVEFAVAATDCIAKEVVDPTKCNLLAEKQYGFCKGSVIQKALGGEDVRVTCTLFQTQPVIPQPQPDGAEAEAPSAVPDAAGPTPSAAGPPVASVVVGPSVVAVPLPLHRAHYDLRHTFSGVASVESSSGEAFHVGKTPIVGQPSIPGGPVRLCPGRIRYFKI

B1: Erythrina cristagalli lectin (natural protein, UniProt P83410 1-239, looked up)
chain: VETISFSFSEFEPGNDNLTLQGAALITQSGVLQLTKINQNGMPAWDSTGRTLYTKPVHMWDSTTGTVASFETRFSFSIEQPYTRPLPADGLVFFMGPTKSKPAQGYGYLGVFNNSKQDNSYQTLAVEFDTFSNPWDPPQVPHIGIDVNSIRSIKTQPFQLDNGQVANVVIKYDAPSKILHVVLVYPSSGAIYTIAEIVDVKQVLPDWVDVGLSGATGAQRDAAETHDVYSWSFQASLPE
notes: lectin of the plant Erythrina cristagalli; printed mass 54 kDa; The printed 54 kDa probably means a dimer of the lectin chain; also called ECL; source: bought: Vector Laboratories via BIOZOL Diagnostica

Tests used:
[1] = molecular target: Protein A (Staphylococcus aureus) (UniProt P38507); experiment: LSPR (localized surface plasmon resonance, reflectance spectroscopy); PrA covalently coupled to the nanostructured gold layer via cysteamine/glutardialdehyde; analyte flown over in PBS pH 7.4, 0.57 ml/min; equilibrium shifts of three sensors fitted to a Langmuir isotherm
[2] = molecular target: Protein A (Staphylococcus aureus) (UniProt P38507); experiment: LSPR (localized surface plasmon resonance, reflectance spectroscopy); PrA physically adsorbed on the nanostructured gold layer; analyte flown over in PBS pH 7.4, 0.57 ml/min; equilibrium shifts of three sensors fitted to a Langmuir isotherm
[3] = molecular target: T1, asialofetuin; experiment: LSPR (localized surface plasmon resonance, reflectance spectroscopy); ASF physically adsorbed on the nanostructured gold layer; analyte in lectin buffer (10 mM HEPES, 150 mM NaCl, 0.1 mM CaCl2, pH 7.5); equilibrium shifts of three sensors fitted to a Langmuir isotherm; conditions: both partners purified

Molecule	Kd [1] [nM]	Kd [2] [nM]	Kd [3] [nM]
immunoglobulin G (IgG, 150 kDa) from rabbit (antibody)	150	140	
B1			490
